# Results reported in article PMC7609953, “Expression, Purification, Refolding, and Characterization of a Neverland Protein From Caenorhabditis elegans” (Frontiers in Bioengineering and Biotechnology, 2020).
# Target: the molecule itself
# Experiment: SEC; Superdex200 Increase 10/300 GL, 20 mM Tris-HCl, 150 mM NaCl, 1 mM DTT, pH 8.0, 1 ml/min; aldolase (158 kDa) and conalbumin (75 kDa) as calibration proteins; oligomeric state of the refolded protein
protein,measurement,value
Refolded His-tagged neverland protein from Caenorhabditis elegans (His_CeNVD) (enzyme) RQLERLKLLRRVGDMPPVFPNGWYCVCESEKLANNQIMEITVLGQFLSLIRSESGAVYITDSYCPHIGANFNIGGRVVRDNCIQCPFHGWIFSAETGKCVEVPYDEGRIPEQAKVTTWPCIERNNNIYLWYHCDGAEPEWEIPEITEITDGFWHLGGRTEHEVMCHIQEIPENGADIAHLNYLHKSAPPVTKGSDIIKTDLSDPQPAVQHVWDGKWEVKSEEDRHCGVMHLNQFMTFWGYKVPLTSSKLVAEQHGPGIVHMLFDFGIWGKGVVFQTVTPEEALLQRVRFRIFSNIPWFFVKFFMTVEAMQFERDVFIWSNKKYIKSPLLVKNDGPIQKHRRWFSQFYTENSPKMLKDGSLSNQAKSIFDW,stoichiometry N,3
